Laboratory results published in patent US20050287132A1, “Biliverdin reductase fragments and variants, and methods of using biliverdin reductase and such fragments and variants” (University of Rochester, priority 1999, published 2005).

Key:
HeLa cells = assay: Nuclear translocation of hemagglutinin-tagged BVR constructs after 8-bromo-cGMP, immunofluorescence; type: cell-based, human; conditions: 500 μM 8-bromo-cGMP, 5 min (up to 60 min)
Description: HeLa cells were grown on glass cover slips in DMEM medium containing 10% FBS under an atmosphere of 5% CO2. Cells were transfected with different BVR constructs using Lipofectamine, as described by the manufacturer. Briefly, cells were treated with a mixture of 2 μg DNA and 20 μl Lipofectamine for 5 h followed by the addition of DMEM medium. After 48 h, cells were treated with 500 μM 8-bromo-cGMP for 5, 20 or 60 min, fixed with 4% paraformaldehyde for 10 min. Cells were then rinsed with phosphate-buffered saline, incubated with 5% goat serum to block nonspecific binding sites and then with monoclonal anti hemagglutinin primary antibody and FITC conjugated secondary antibody. Cells were visualized by direct fluorescence microscopy.

[1] = Biliverdin reductase catalytic activity of recombinant wild type and mutant hBVR (Example 2, FIG. 3); type: biochemical, human
Description: FIGS. 3A-C are graphs depicting the effects of mutation of Gly^17, Ser^149, and Lys^296 on BVR catalytic activity. Purified preparations of recombinant wild type and mutant BVR with substitution of Gly^17 (FIG. 3A), Ser^149 (FIG. 3B), or Lys^296 (FIG. 3C) with Ala were assessed for BVR activity at pH 6.5 using NADH as cofactor and at pH 8.7 with NADPH as cofactor. Values presented are in percent wild type activity for each pH. The specific activity of the wild type preparation was 1744 nmol bilirubin produced min^−1 mg^−1 at pH 6.5 and 1147 nmol bilirubin produced min^−1 mg^−1 at pH 8.7. Values presented are representative of 2-4 determinations.
GST-BVR fusion proteins were prepared as described in Example 1. Human kidney biliverdin reductase was purified to homogeneity as described by Maines et al., Arch. Biochem. Biophys. 300:320-326 (1993), which is hereby incorporated by reference. The purified reductase preparations were judged to be homogenous by SDS-PAGE. Protein concentration was determined by the method of Bradford, Anal. Biochem. 72:248-254 (1976), which is hereby incorporated by reference.
Activity was determined as previously described by Huang et al., J. Biol. Chem. 264:7844-7849 (1989), which is hereby incorporated by reference, using NADPH as the cofactor at pH 8.7 in 0.1 M […] or NADH at pH 6.5 in […]. The rate of activity was measured as the increase in 450 nm absorbance at 25° C. Specific activity is expressed in units/mg protein, where 1 unit catalyzes the formation of 1 nmol bilirubin/min.

[2] = Biliverdin reductase activity of E. coli expressed hBVR wild type and mutants (Example 1); type: biochemical, human
Description: SalI linkers are underlined in each primer. The products were digested with SalI and cloned into the vector pGEX 4T-2. Orientation was determined by restriction analysis and confirmed by sequencing. The ligation places the BVR coding region in frame with the GST protein of the vector. GST-BVR fusion proteins were purified from bacterial clones containing the plasmid, and grown overnight using a glutathione-sepharose 4B column (Pharmacia). The reductase portion of the fusion protein was released by thrombin protease treatment.
Activity was determined as previously described (Kutty et al., J. Biol. Chem. 256:3956-3962 (1981); Huang et al., J. Biol. Chem. 264:7844-7849 (1989), which are hereby incorporated by reference). Activity was determined in a 1 ml assay volume that contained 0.1 M Tris/HCl, pH 8.7 NADPH (100 μM), and biliverdin (5 μM). Reductase activity was also measured using NADH (1 mM) as the cofactor; in this case 0.1 M potassium phosphate pH 6.75, was substituted for Tris/HCl. SDS/PAGE was performed by the method of Laemmli, Nature 227:680-685 (1970), which is hereby incorporated by reference. Western blot analysis was performed using anti-serum to human kidney biliverdin reductase as previously described (Maines et al., Arch. Biochem. Biophys. 300:320-326 (1993), which is hereby incorporated by reference). The relative amounts of immunoreactive protein were determined by scanning the blot using a laser densitometer and comparing the area under the peak for each mutant with the wild type. The rate of activity was measured as the increase in 450 nm absorbance at 25° C. Specific activity is expressed as nmol bilirubin/min/ mg protein.

biliverdin reductase = assay: Phosphorylation state of hBVR, SDS-PAGE immunoblot with anti-phospho antibodies; type: biochemical, human; conditions: protein purified from human kidney, anti-phospho mix
Description: Purified protein was subjected to 12.5% SDS-PAGE and the protein transferred to PVDF membrane. The membrane was subsequently treated as for Western blotting, using anti-phosphoserine, anti-phosphotyrosine or anti-phosphothreonine, at 2 μg/ml, or a mixture of all three antibodies as the primary antibody. The secondary antibody was goat anti-rabbit horseradish peroxidase at a 1:1000 dilution and detection was carried out using the ECL reagent kit (NEN Life Sciences) according to the manufacturer's instructions.

B1: NLS mutant: hemagglutinin tagged hBVR with amino acids 222-227 changed from GLKRNR to VIGSTG (SEQ. ID. No. 25) (protein, UniProt P53004 3-296, looked up, variant G222V L223I K224G R225S N226T R227G)
Biliverdin reductase A: AEPERKFGVVVVGVGRAGSVRMRDLRNPHPSSAFLNLIGFVSRRELGSIDGVQQISLEDALSSQEVEVAYICSESSSHEDYIRQFLNAGKHVLVEYPMTLSLAAAQELWELAEQKGKVLHEEHVELLMEEFAFLKKEVVGKDLLKGSLLFTAGPLEEERFGFPAFSGISRLTWLVSLFGELSLVSATLEERKEDQYMKMTVCLETEKKSPLSWIEEKGPVIGSTGYLSFHFKSGSLENVPNVGVNKNIFLKDQNIFVQKLLGQFSEKELAAEKKRILHCLGLAEEIQKYCCSRK
modifications: hemagglutinin tag
nuclear localization in response to 8-bromo-cGMP (HeLa cells): not detected

B2: wild type: wild type human biliverdin reductase, SEQ. ID. No. 1; E. coli expressed or purified from human kidney (protein, listed as Homo sapiens)
chain: MNAEPERKFGVVVVGVGRAGSVRMRDLRNPHPSSAFLNLIGFVSRRELGSIDGVQQISLEDALSSQEVEVAYICSESSSHEDYIRQFLNAGKHVLVEYPMTLSLAAAQELWELAEQKGKVLHEEHVELLMEEFAFLKKEVVGKDLLKGSLLFTSDPLEEDRFGFPAFSGISRLTWLVSLFGELSLVSATLEERKEDQYMKMTVCLETEKKSPLSWIEEKGPGLKRNRYLSFHFKSGSLENVPNVGVNKNIFLKDQNIFVQKLLGQFSEKELAAEKKRILHCLGLAEEIQKYCCSRK
specific activity ([1]; pH 6.5, NADH): 1744 nmol bilirubin produced min^−1 mg^−1 | specific activity ([1]; pH 8.7, NADPH): 1147 nmol bilirubin produced min^−1 mg^−1 | nuclear localization in response to 8-bromo-cGMP (HeLa cells): strong punctate staining associated with the nucleus | Activity % pH 6.7 + NADH ([2]; Cys→Ala mutations, wild type = 100, pH 6.7, NADH): 100% | Activity % pH 8.7 + NADPH ([2]; Cys→Ala mutations, wild type = 100, pH 8.7, NADPH): 100% | Activity (nmol bilirubin/min/mg) pH 6.7 + NADH ([2]; pH 6.7, NADH cofactor, 25°): 2830 nmol bilirubin/min/mg | Activity (nmol bilirubin/min/mg) pH 8.7 + NADPH ([2]; pH 8.7, NADPH cofactor, 25°): 1338 nmol bilirubin/min/mg | phosphorylation state (biliverdin reductase): phosphoprotein
